Source: the supplement of paper PMC6755084

B1: F1*; the commonest letter at each place (parent)
chain: GAGACCGCAACTGAAAAGTTGTTATCACTTGTCGTAAGACACTTTGGATGGGTTGAAGTTCTGCACGTAGAAGCAAAAGGC

Variants of: B1
Test: fraction ligated after 30 min (ligated reads / total reads); higher = more ligase activity
Details: with F1*sub RNA substrate (template-directed ligation), 42 °C
Outline: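 The ligase ribozyme variants were produced by PCR amplification of oligo-pool templates, T7 transcription and purification on gel. Their ligated and unligated forms were gel-separated, then reverse transcribed with barcoded primers before MiSeq sequencing. Core bases were filtered at a quality of ≥20, and fraction ligated per variant was ligated reads over total reads.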

Compared with GAGACCGCAACTGAAAAGTTGTTATCACTTGTTGGAAGACACTTTGGATGGGTTGAAGTTCTGCACGTAGAAGCAAAAGGC, GAGACCGCAACTGAAAAGTTGTTATCACTTGTTGCAAGACACTTTGGATGGGTTGAAGTTCTGCACGTAGAAGCAAAAGGC is higher in fraction ligated: 0.854 for the first, 0.869 for the second.

Going from GAGACCGCAACTGAAAAGTTGTTATCACTTGTTGAAAGACACTTTGGATGGGTTGAAGTTCTGCACGTAGAAGCAAAAGGC to GAGACCGCAACTGAAAAGTTGTTATCACTTGTTGTAAGACACATTGGATGGGTTGAAGTTCTGCACGTAGAAGCAAAAGGC, the fraction ligated falls from 0.879 to 0.831.

Going from GAGACCGCAACTGAAAAGTTGTTATCACTTGTTGTAAGACACGTTGGATGGGTTGAAGTTCTGCACGTAGAAGCAAAAGGC to GAGACCGCAACTGAAAAGTTGTTATCACTTGTTGTAAGACACCTTGGATGGGTTGAAGTTCTGCACGTAGAAGCAAAAGGC, the fraction ligated rises from 0.78 to 0.822.

Compared with GAGACCGCAACTGAAAAGTTGTTATCACTTGTTGTAAGACACTATGGATGGGTTGAAGTTCTGCACGTAGAAGCAAAAGGC, GAGACCGCAACTGAAAAGTTGTTATCACTTGTTGTAAGACACTGTGGATGGGTTGAAGTTCTGCACGTAGAAGCAAAAGGC is lower in fraction ligated: 0.844 for the first, 0.815 for the second.

Going from GAGACCGCAACTGAAAAGTTGTTATCACTTGTTGTAAGACACTCTGGATGGGTTGAAGTTCTGCACGTAGAAGCAAAAGGC to GAGACCGCAACTGAAAAGTTGTTATCACTTGTCATAAGGCACTTTGGATGGGTTGAAGTTCTGCACGTAGAAGCAAAAGGC, the fraction ligated falls from 0.855 to 0.835.

First: GAGACCGCAACTGAAAAGTTGTTATCACTTGTCATAAGCCACTTTGGATGGGTTGAAGTTCTGCACGTAGAAGCAAAAGGC
Second: GAGACCGCAACTGAAAAGTTGTTATCACTTGTCATAAGTCACTTTGGATGGGTTGAAGTTCTGCACGTAGAAGCAAAAGGC
The fraction ligated of the first is lower: 0.8 for the first, 0.818 for the second.

Going from GAGACCGCAACTGAAAAGTTGTTATCACTTGTCATAAGAAACTTTGGATGGGTTGAAGTTCTGCACGTAGAAGCAAAAGGC to GAGACCGCAACTGAAAAGTTGTTATCACTTGTCATAAGATACTTTGGATGGGTTGAAGTTCTGCACGTAGAAGCAAAAGGC, the fraction ligated falls from 0.817 to 0.81.

Compared with GAGACCGCAACTGAAAAGTTGTTATCACTTGTCATAAGAGACTTTGGATGGGTTGAAGTTCTGCACGTAGAAGCAAAAGGC, GAGACCGCAACTGAAAAGTTGTTATCACTTGTCATAAAACACTTTGGATGGGTTGAAGTTCTGCACGTAGAAGCAAAAGGC is higher in fraction ligated: 0.833 for the first, 0.861 for the second.

Compared with GAGACCGCAACTGAAAAGTTGTTATCACTTGTCATAATACACTTTGGATGGGTTGAAGTTCTGCACGTAGAAGCAAAAGGC, GAGACCGCAACTGAAAAGTTGTTATCACTTGTCATAACACACTTTGGATGGGTTGAAGTTCTGCACGTAGAAGCAAAAGGC is lower in fraction ligated: 0.838 for the first, 0.825 for the second.

Going from GAGACCGCAACTGAAAAGTTGTTATCACTTGTTGTAAGACACTTTGGAAGGGTTGAAGTTCTGCACGTAGAAGCAAAAGGC to GAGACCGCAACTGAAAAGTTGTTATCACTTGTTGTAAGACACTTTGGAGGGGTTGAAGTTCTGCACGTAGAAGCAAAAGGC, the fraction ligated rises from 0.787 to 0.801.

Compared with GAGACCGCAACTGAAAAGTTGTTATCACTTGTTGTAAGACACTTTGGACGGGTTGAAGTTCTGCACGTAGAAGCAAAAGGC, GAGACCGCAACTGAAAAGTTGTTATCACTTGTCATAAGACACTTTGGCTGGGTTGAAGTTCTGCACGTAGAAGCAAAAGGC is higher in fraction ligated: 0.697 for the first, 0.772 for the second.

First: GAGACCGCAACTGAAAAGTTGTTATCACTTGTCATAAGACACTTTGGTTGGGTTGAAGTTCTGCACGTAGAAGCAAAAGGC
Second: GAGACCGCAACTGAAAAGTTGTTATCACTTGTCATAAGACACTTTGGGTGGGTTGAAGTTCTGCACGTAGAAGCAAAAGGC
The fraction ligated of the first is higher: 0.798 for the first, 0.795 for the second.

Compared with GAGACCGCAACTGAAAAGTTGTTATCACTTGTCATAAGACACTTTGCATGGGTTGAAGTTCTGCACGTAGAAGCAAAAGGC, GAGACCGCAACTGAAAAGTTGTTATCACTTGTCATAAGACACTTTGAATGGGTTGAAGTTCTGCACGTAGAAGCAAAAGGC is higher in fraction ligated: 0.239 for the first, 0.805 for the second.

First: GAGACCGCAACTGAAAAGTTGTTATCACTTGTCATAAGACACTTTGTATGGGTTGAAGTTCTGCACGTAGAAGCAAAAGGC
Second: GAGACCGCAACTGAAAAGTTGTTATCACTTGTCATAAGACGCTTTGGATGGGTTGAAGTTCTGCACGTAGAAGCAAAAGGC
The fraction ligated of the first is lower: 0.373 for the first, 0.81 for the second.

Going from GAGACCGCAACTGAAAAGTTGTTATCACTTGTCATAAGACCCTTTGGATGGGTTGAAGTTCTGCACGTAGAAGCAAAAGGC to GAGACCGCAACTGAAAAGTTGTTATCACTTGTCATAAGACTCTTTGGATGGGTTGAAGTTCTGCACGTAGAAGCAAAAGGC, the fraction ligated rises from 0.76 to 0.811.

Compared with GAGACCGCAACTGAAAAGTTGTTATCACTTGTCATAAGACACCTTGGATGGGTTGAAGTTCTGCACGTAGAAGCAAAAGGC, GAGACCGCAACTGAAAAGTTGTTATCACTTGTCATAAGACACATTGGATGGGTTGAAGTTCTGCACGTAGAAGCAAAAGGC is higher in fraction ligated: 0.779 for the first, 0.836 for the second.

Going from GAGACCGCAACTGAAAAGTTGTTATCACTTGTCATAAGACACGTTGGATGGGTTGAAGTTCTGCACGTAGAAGCAAAAGGC to GAGACCGCAACTGAAAAGTTGTTATCACTTGTTGTAAGACACTTGGGATGGGTTGAAGTTCTGCACGTAGAAGCAAAAGGC, the fraction ligated falls from 0.799 to 0.103.

First: GAGACCGCAACTGAAAAGTTGTTATCACTTGTTGTAAGACACTTAGGATGGGTTGAAGTTCTGCACGTAGAAGCAAAAGGC
Second: GAGACCGCAACTGAAAAGTTGTTATCACTTGTTGTAAGACACTTCGGATGGGTTGAAGTTCTGCACGTAGAAGCAAAAGGC
The fraction ligated of the first is lower: 0.75 for the first, 0.815 for the second.

Compared with GAGACCGCAACTGAAAAGTTGTTATCACTTGTCATAAGACACTTTGGATGGGTTCAAGTTCTGCACGTAGAAGCAAAAGGC, GAGACCGCAACTGAAAAGTTGTTATCACTTGTCATAAGACACTTTGGATGGGTTAAAGTTCTGCACGTAGAAGCAAAAGGC is higher in fraction ligated: 0.801 for the first, 0.84 for the second.

First: GAGACCGCAACTGAAAAGTTGTTATCACTTGTCATAAGACACTTTGGATGGGTTTAAGTTCTGCACGTAGAAGCAAAAGGC
Second: GAGACCGCAACTGAAAAGTTGTTATCACTTGTCATAGGACACTTTGGATGGGTTGAAGTTCTGCACGTAGAAGCAAAAGGC
The fraction ligated of the first is lower: 0.811 for the first, 0.859 for the second.

First: GAGACCGCAACTGAAAAGTTGTTATCACTTGTCATACGACACTTTGGATGGGTTGAAGTTCTGCACGTAGAAGCAAAAGGC
Second: GAGACCGCAACTGAAAAGTTGTTATCACTTGTCATATGACACTTTGGATGGGTTGAAGTTCTGCACGTAGAAGCAAAAGGC
The fraction ligated of the first is lower: 0.835 for the first, 0.84 for the second.

Going from GAGACCGCAACTGAAAAGTTGTTATCACTTGTCATAAGACACTTTGGATGGGTTGACGTTCTGCACGTAGAAGCAAAAGGC to GAGACCGCAACTGAAAAGTTGTTATCACTTGTCATAAGACACTTTGGATGGGTTGAGGTTCTGCACGTAGAAGCAAAAGGC, the fraction ligated rises from 0.791 to 0.835.

Compared with GAGACCGCAACTGAAAAGTTGTTATCACTTGTCATAAGACACTTTGGATGGGTTGATGTTCTGCACGTAGAAGCAAAAGGC, GAGACCGCAACTGAAAAGTTGTTATCACTTGTCATAAGACACTTAGGATGGGTTGAAGTTCTGCACGTAGAAGCAAAAGGC is lower in fraction ligated: 0.822 for the first, 0.797 for the second.

Compared with GAGACCGCAACTGAAAAGTTGTTATCACTTGTCATAAGACATTTTGGATGGGTTGAAGTTCTGCACGTAGAAGCAAAAGGC, GAGACCGCAACTGAAAAGTTGTTATCACTTGTCATAAGACAATTTGGATGGGTTGAAGTTCTGCACGTAGAAGCAAAAGGC is lower in fraction ligated: 0.865 for the first, 0.839 for the second.

Going from GAGACCGCAACTGAAAAGTTGTTATCACTTGTCATAAGACAGTTTGGATGGGTTGAAGTTCTGCACGTAGAAGCAAAAGGC to GAGACCGCAACTGAAAAGTTGTTATCACTTGTCATAAGACACTTTGGATGGGTTGAAGTTCTGCACGTAGAAGCAAAAGGC, the fraction ligated falls from 0.85 to 0.848.

Compared with GAGACCGCAACTGAAAAGTTGTTATCACTTGTCATAAGACACTTTGGATTGGTTGAAGTTCTGCACGTAGAAGCAAAAGGC, GAGACCGCAACTGAAAAGTTGTTATCACTTGTCATAAGACACTTTGGATCGGTTGAAGTTCTGCACGTAGAAGCAAAAGGC is lower in fraction ligated: 0.778 for the first, 0.43 for the second.

Compared with GAGACCGCAACTGAAAAGTTGTTATCACTTGTCATAAGACACTTTGGATAGGTTGAAGTTCTGCACGTAGAAGCAAAAGGC, GAGACCGCAACTGAAAAGTTGTTATCACTTGTCATAAGACACTTTGGATGGGTTGCAGTTCTGCACGTAGAAGCAAAAGGC is higher in fraction ligated: 0.625 for the first, 0.804 for the second.

Compared with GAGACCGCAACTGAAAAGTTGTTATCACTTGTCATAAGACACTTTGGATGGGTTGTAGTTCTGCACGTAGAAGCAAAAGGC, GAGACCGCAACTGAAAAGTTGTTATCACTTGTCATAAGACACTTTGGATGGGTTGGAGTTCTGCACGTAGAAGCAAAAGGC is lower in fraction ligated: 0.819 for the first, 0.775 for the second.

Compared with GAGACCGCAACTGAAAAGTTGTTATCACTTGTCAAAAGACACTTTGGATGGGTTGAAGTTCTGCACGTAGAAGCAAAAGGC, GAGACCGCAACTGAAAAGTTGTTATCACTTGTCAGAAGACACTTTGGATGGGTTGAAGTTCTGCACGTAGAAGCAAAAGGC is higher in fraction ligated: 0.848 for the first, 0.855 for the second.

First: GAGACCGCAACTGAAAAGTTGTTATCACTTGTCACAAGACACTTTGGATGGGTTGAAGTTCTGCACGTAGAAGCAAAAGGC
Second: GAGACCGCAACTGAAAAGTTGTTATCACTTGTCATAAGACACTTTTGATGGGTTGAAGTTCTGCACGTAGAAGCAAAAGGC
The fraction ligated of the first is higher: 0.835 for the first, 0.778 for the second.

Going from GAGACCGCAACTGAAAAGTTGTTATCACTTGTCATAAGACACTTTAGATGGGTTGAAGTTCTGCACGTAGAAGCAAAAGGC to GAGACCGCAACTGAAAAGTTGTTATCACTTGTCATAAGACACTTTCGATGGGTTGAAGTTCTGCACGTAGAAGCAAAAGGC, the fraction ligated falls from 0.807 to 0.798.

Compared with GAGACCGCAACTGAAAAGTTGTTATCACTTGTCATAAGACACTCTGGATGGGTTGAAGTTCTGCACGTAGAAGCAAAAGGC, GAGACCGCAACTGAAAAGTTGTTATCACTTGTCATAAGACACTGTGGATGGGTTGAAGTTCTGCACGTAGAAGCAAAAGGC is higher in fraction ligated: 0.825 for the first, 0.844 for the second.

Compared with GAGACCGCAACTGAAAAGTTGTTATCACTTGTCATAAGACACTATGGATGGGTTGAAGTTCTGCACGTAGAAGCAAAAGGC, GAGACCGCAACTGAAAAGTTGTTATCACTTGTCATGAGACACTTTGGATGGGTTGAAGTTCTGCACGTAGAAGCAAAAGGC is higher in fraction ligated: 0.842 for the first, 0.846 for the second.

Compared with GAGACCGCAACTGAAAAGTTGTTATCACTTGTCATTAGACACTTTGGATGGGTTGAAGTTCTGCACGTAGAAGCAAAAGGC, GAGACCGCAACTGAAAAGTTGTTATCACTTGTCATCAGACACTTTGGATGGGTTGAAGTTCTGCACGTAGAAGCAAAAGGC is lower in fraction ligated: 0.843 for the first, 0.83 for the second.
